Source: US20230142800A1 (COMMISSARIAT A L ENERGIE ATOMIQUE ET AUX ENERGIES …, published 2023)
Numbering of substitutions follows the chain as printed.

B1: CDRH2 library mutant AAITWNGGHR (Fab, V domains shown)
VH: EVQLVESGGGLVQPGRSLRLSCAASGFTFDDYAMHWVRQAPGKGLEWVAAITWNGGHRDYADSVEGRFTISRDNAKNSLYLQMNSLRAEDTAVYYCAKVSYLSTASSLDYWGQGTLVTVSS
VL: not shown
B2: CDRH2 library mutant SAISWNGGHH (Fab, V domains shown)
VH: B1 VH with A49S, T52S, R58H
VL: not shown
B3: Mutant 8, Fab displayed on yeast (CDRH2-CDRH3 combinatorial library) (Fab, V domains shown)
VH: B1 VH with A49G, T52N, V93L, V99T, S100T, S103P
VL: not shown
notes: same variable domains as the soluble Mutant 8 Fab; see its note
B4: CDRH2 library mutant SAISWNGGHQ (Fab, V domains shown)
VH: B1 VH with A49S, T52S, R58Q
VL: not shown
B5: Mutant 3, Fab displayed on yeast (CDRH2-CDRH3 combinatorial library) (Fab, V domains shown)
VH: B1 VH with A49G, T52N, R58H, V99T, S100T, S103P
VL: not shown
notes: same variable domains as the soluble Mutant 3 Fab; see its note
B6: CDRH2 library mutant SSIAWNGGHW (Fab, V domains shown)
VH: B1 VH with A49S, A50S, T52A, R58W
VL: not shown
B7: CDRH2 library mutant GAITWNGGHR (Fab, V domains shown)
VH: B1 VH with A49G
VL: not shown
B8: CDRH2 library mutant GAINWNGGHR (Fab, V domains shown)
VH: B1 VH with A49G, T52N
VL: not shown
B9: Mutant 1, Fab displayed on yeast (CDRH2-CDRH3 combinatorial library) (Fab, V domains shown)
VH: B1 VH with A49G, T52N, V99S, S100Q, S103P
VL: not shown
notes: same variable domains as the soluble Mutant 1 Fab; see its note
B10: CDRH2 library mutant GAISWNGGHH (Fab, V domains shown)
VH: B1 VH with A49G, T52S, R58H
VL: not shown
B11: Mutant 5, Fab format (Fab, V domains shown)
VH: B1 VH with A49G, A50D, T52S, R58T, V99T, S100T, S103P
VL: not shown
notes: Soluble Fab as for Mutant 1; also called mutation 5
B12: Mutant 5, Fab displayed on yeast (CDRH2-CDRH3 combinatorial library) (Fab, V domains shown)
VH: B1 VH with A49G, A50D, T52S, R58T, V99T, S100T, S103P
VL: not shown
notes: same variable domains as the soluble Mutant 5 Fab; see its note
B13: Mutant 2, Fab displayed on yeast (CDRH2-CDRH3 combinatorial library) (Fab, V domains shown)
VH: B1 VH with A49G, A50T, T52N, R58S, V99T, S100T, S103P
VL: not shown
notes: same variable domains as the soluble Mutant 2 Fab; see its note
B14: CDRH2 library mutant AAITWNGGHT (Fab, V domains shown)
VH: B1 VH with R58T
VL: not shown
B15: Mutant 4, Fab displayed on yeast (CDRH2-CDRH3 combinatorial library) (Fab, V domains shown)
VH: B1 VH with A49G, T52N, G55S, R58H, V99T, S100T, S103P
VL: not shown
notes: same variable domains as the soluble Mutant 4 Fab; see its note
B16: CDRH2 library mutant SAISWNGGHR (Fab, V domains shown)
VH: B1 VH with A49S, T52S
VL: not shown
B17: CDRH2 library mutant GAISWNGGHR (Fab, V domains shown)
VH: B1 VH with A49G, T52S
VL: not shown
B18: CDRH2 library mutant SAISWNGGHT (Fab, V domains shown)
VH: B1 VH with A49S, T52S, R58T
VL: not shown
B19: Mutant 6, Fab displayed on yeast (CDRH2-CDRH3 combinatorial library) (Fab, V domains shown)
VH: B1 VH with A49G, T52N, V99T, S100N, S103P
VL: not shown
notes: same variable domains as the soluble Mutant 6 Fab; see its note
B20: CDRH2 library mutant GAISWNGGHT (Fab, V domains shown)
VH: B1 VH with A49G, T52S, R58T
VL: not shown
B21: CDRH2 library mutant GAINWNGGHT (Fab, V domains shown)
VH: B1 VH with A49G, T52N, R58T
VL: not shown
B22: CDRH2 library mutant SAINWNGGHR (Fab, V domains shown)
VH: B1 VH with A49S, T52N
VL: not shown
B23: Mutant 7, Fab displayed on yeast (CDRH2-CDRH3 combinatorial library) (Fab, V domains shown)
VH: B1 VH with A49G, T52N, V99A, S100H, S103P
VL: not shown
notes: same variable domains as the soluble Mutant 7 Fab; see its note

Assays:
[1] = target: T1, biotinylated TNF alpha (human (definition in paragraph 32)); the …, UniProt P01375 77-233, biotinylated (site not stated)); assay: yeast display FACS sorting on biotinylated TNF alpha, NGS enrichment, CDRH2 library
T1 construct: Used for FACS sorting of yeast libraries and immobilised on streptavidin sensors for BLI; also called TNFα; Tumor Necrosis Factor Alpha
T1 sequence (P01375 77-233 limits assumed): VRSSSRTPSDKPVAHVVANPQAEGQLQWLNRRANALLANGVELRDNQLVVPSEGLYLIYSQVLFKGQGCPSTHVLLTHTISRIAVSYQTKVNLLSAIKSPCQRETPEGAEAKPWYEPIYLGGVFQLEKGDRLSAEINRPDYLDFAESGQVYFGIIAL

[2] = target: T1, biotinylated TNF alpha; assay: yeast display FACS sorting on biotinylated TNF alpha, NGS enrichment, CDRH2-CDRH3 library
[3] = target: T1, biotinylated TNF alpha; assay: BLI (Octet Red96), Fab in solution, biotinylated TNF alpha on streptavidin sensors, 1:1 global fit
Description: After saturation the sensors in a blocking solution containing 10 μg/mL biotin (Sigma-Aldrich, Saint-Louis, United States), the association and dissociation are measured over 20 and 40 minutes respectively. […] During the analysis, the reference is subtracted from each curve and a 1:1 global Langmuir model is applied in order to get the affinity parameters.

Binder | Enrichment [1] | Enrichment [2] | other results
B1 | 213 |  | 
B2 | 87 |  | 
B3 |  | 238000 | 
B4 | 104 |  | 
B5 |  | 111000 | 
B6 | 128 |  | 
B7 | 64 |  | 
B8 | 222 |  | 
B9 |  | 217000 | 
B10 | 66 |  | 
B11 |  |  | Kd [3]: 9 pM
B12 |  | 512000 | 
B13 |  | 1.47e+06 | 
B14 | 91 |  | 
B15 |  | 186000 | 
B16 | 207 |  | 
B17 | 279 |  | 
B18 | 100 |  | 
B19 |  | 238000 | 
B20 | 133 |  | 
B21 | 62 |  | 
B22 | 79 |  | 
B23 |  | 59400 | 
